What was measured:
Experiment in all cases: cell-based or functional assay
[1] = molecular target: HIV-1 92RW008 Env (HIV-1)
[2] = molecular target: HIV-1 92TH021 Env (HIV-1)
[3] = molecular target: HIV-1 92UG031 Env (HIV-1)
[4] = molecular target: HIV-1 92UG037 Env (HIV-1)
[5] = molecular target: HIV-1 92WR009 Env (HIV-1)
[6] = molecular target: HIV-1 92WR020 Env (HIV-1)
[7] = molecular target: HIV-1 92WR021 Env (HIV-1)
[8] = molecular target: HIV-1 92WR024 Env (HIV-1)
[9] = molecular target: HIV-1 93UG077 Env (HIV-1)
[10] = molecular target: HIV-1 93WR029 Env (HIV-1)
[11] = molecular target: HIV-1 94KE105 Env (HIV-1)
[12] = molecular target: HIV-1 94UG103 Env (HIV-1)
HIV-1 CMU02 Env (HIV-1) = molecular target: HIV-1 CMU02 Env (HIV-1)
[13] = molecular target: HIV-1 MGRM-A-001 Env (HIV-1)
[14] = molecular target: HIV-1 MGRM-A-003 Env (HIV-1)
[15] = molecular target: HIV-1 MGRM-A-004 Env (HIV-1)
[16] = molecular target: HIV-1 MGRM-A-005 Env (HIV-1)
[17] = molecular target: HIV-1 MGRM-A-006 Env (HIV-1)
[18] = molecular target: HIV-1 MGRM-A-007 Env (HIV-1)
[19] = molecular target: HIV-1 MGRM-A-008 Env (HIV-1)
[20] = molecular target: HIV-1 MGRM-A-009 Env (HIV-1)
[21] = molecular target: HIV-1 MGRM-A-010 Env (HIV-1)
[22] = molecular target: HIV-1 MGRM-A-011 Env (HIV-1)
[23] = molecular target: HIV-1 MGRM-A-012 Env (HIV-1)
[24] = molecular target: HIV-1 MGRM-A-013 Env (HIV-1)
[25] = molecular target: HIV-1 MGRM-A-014 Env (HIV-1)
[26] = molecular target: HIV-1 MGRM-AE-001 Env (HIV-1)
[27] = molecular target: HIV-1 MGRM-AE-002 Env (HIV-1)
[28] = molecular target: HIV-1 MGRM-AE-003 Env (HIV-1)
[29] = molecular target: HIV-1 MGRM-AE-004 Env (HIV-1)
[30] = molecular target: HIV-1 MGRM-AE-005 Env (HIV-1)
[31] = molecular target: HIV-1 MGRM-AE-006 Env (HIV-1)
[32] = molecular target: HIV-1 MGRM-AE-007 Env (HIV-1)
[33] = molecular target: HIV-1 MGRM-AE-008 Env (HIV-1)
[34] = molecular target: HIV-1 MGRM-AG-002 Env (HIV-1)
[35] = molecular target: HIV-1 MGRM-AG-009 Env (HIV-1)
[36] = molecular target: HIV-1 MGRM-AG-011 Env (HIV-1)
[37] = molecular target: HIV-1 MGRM-AG-012 Env (HIV-1)
HIV-1 VLGCA1 Env (HIV-1) = molecular target: HIV-1 VLGCA1 Env (HIV-1)
[38] = molecular target: HIV-1 92WR026 Env (HIV-1)
[39] = molecular target: HIV-1 MGRM-A-002 Env (HIV-1)
[40] = molecular target: HIV-1 MGRM-AG-001 Env (HIV-1)
[41] = molecular target: HIV-1 MGRM-AG-003 Env (HIV-1)
[42] = molecular target: HIV-1 MGRM-AG-005 Env (HIV-1)
[43] = molecular target: HIV-1 MGRM-AG-006 Env (HIV-1)
[44] = molecular target: HIV-1 MGRM-AG-008 Env (HIV-1)
[45] = molecular target: HIV-1 MGRM-AG-013 Env (HIV-1)

## 4838_L06 (PGT-121) (antibody)
[1]
  IC50: 0.003 µg/mL
[2]
  IC50: > 50 µg/mL
[3]
  IC50: > 50 µg/mL
[4]
  IC50: 0.031 µg/mL
[5]
  IC50: 1.74 µg/mL
[6]
  IC50: 0.004 µg/mL
[7]
  IC50: 0.009 µg/mL
[8]
  IC50: > 50 µg/mL
[9]
  IC50: 0.019 µg/mL
[10]
  IC50: > 50 µg/mL
[11]
  IC50: 0.029 µg/mL
[12]
  IC50: 2.52 µg/mL
HIV-1 CMU02 Env (HIV-1)
  IC50: > 50 µg/mL
[13]
  IC50: > 50 µg/mL
[14]
  IC50: 0.435 µg/mL
[15]
  IC50: > 50 µg/mL
[16]
  IC50: > 50 µg/mL
[17]
  IC50: 0.396 µg/mL
[18]
  IC50: > 50 µg/mL
[19]
  IC50: > 50 µg/mL
[20]
  IC50: 0.006 µg/mL
[21]
  IC50: 2.44 µg/mL
[22]
  IC50: > 50 µg/mL
[23]
  IC50: 0.092 µg/mL
[24]
  IC50: 0.387 µg/mL
[25]
  IC50: 0.003 µg/mL
[26]
  IC50: > 50 µg/mL
[27]
  IC50: > 50 µg/mL
[28]
  IC50: > 50 µg/mL
[29]
  IC50: > 50 µg/mL
[30]
  IC50: > 50 µg/mL
[31]
  IC50: > 50 µg/mL
[32]
  IC50: > 50 µg/mL
[33]
  IC50: > 50 µg/mL
[34]
  IC50: > 50 µg/mL
[35]
  IC50: 0.08 µg/mL
[36]
  IC50: > 50 µg/mL
[37]
  IC50: > 50 µg/mL
HIV-1 VLGCA1 Env (HIV-1)
  IC50: > 50 µg/mL

## 4858_P08 (PGT-123) (antibody)
[1]
  IC50: 0.003 µg/mL
[2]
  IC50: > 50 µg/mL
[3]
  IC50: > 50 µg/mL
[4]
  IC50: 0.023 µg/mL
[5]
  IC50: 15.7 µg/mL
[6]
  IC50: 0.002 µg/mL
[7]
  IC50: 0.005 µg/mL
[8]
  IC50: > 50 µg/mL
[38]
  IC50: 0.012 µg/mL
[9]
  IC50: 0.028 µg/mL
[10]
  IC50: > 50 µg/mL
[11]
  IC50: 0.024 µg/mL
[12]
  IC50: 0.678 µg/mL
HIV-1 CMU02 Env (HIV-1)
  IC50: > 50 µg/mL
[13]
  IC50: > 50 µg/mL
[39]
  IC50: 0.011 µg/mL
[14]
  IC50: 0.495 µg/mL
[15]
  IC50: > 50 µg/mL
[16]
  IC50: > 50 µg/mL
[17]
  IC50: > 50 µg/mL
[18]
  IC50: > 50 µg/mL
[19]
  IC50: > 50 µg/mL
[20]
  IC50: 0.004 µg/mL
[21]
  IC50: 0.705 µg/mL
[22]
  IC50: > 50 µg/mL
[23]
  IC50: 0.192 µg/mL
[24]
  IC50: 0.565 µg/mL
[25]
  IC50: 0.003 µg/mL
[26]
  IC50: > 50 µg/mL
[27]
  IC50: > 50 µg/mL
[28]
  IC50: > 50 µg/mL
[29]
  IC50: > 50 µg/mL
[30]
  IC50: > 50 µg/mL
[31]
  IC50: > 50 µg/mL
[32]
  IC50: > 50 µg/mL
[33]
  IC50: > 50 µg/mL
[40]
  IC50: 2.51 µg/mL
[34]
  IC50: > 50 µg/mL
[41]
  IC50: > 50 µg/mL
[42]
  IC50: 0.149 µg/mL
[43]
  IC50: 0.014 µg/mL
[44]
  IC50: 19.2 µg/mL
[35]
  IC50: 0.073 µg/mL
[36]
  IC50: > 50 µg/mL
[37]
  IC50: > 50 µg/mL
[45]
  IC50: 3.37 µg/mL
HIV-1 VLGCA1 Env (HIV-1)
  IC50: > 50 µg/mL

## 4877_D15 (PGT-122) (antibody)
[1]
  IC50: 0.003 µg/mL
[2]
  IC50: > 50 µg/mL
[3]
  IC50: > 50 µg/mL
[4]
  IC50: 0.068 µg/mL
[5]
  IC50: 42.4 µg/mL
[6]
  IC50: 0.009 µg/mL
[7]
  IC50: 0.021 µg/mL
[8]
  IC50: > 50 µg/mL
[38]
  IC50: 0.036 µg/mL
[9]
  IC50: 0.084 µg/mL
[10]
  IC50: > 50 µg/mL
[11]
  IC50: 0.056 µg/mL
[12]
  IC50: 2.04 µg/mL
HIV-1 CMU02 Env (HIV-1)
  IC50: > 50 µg/mL
[13]
  IC50: > 50 µg/mL
[39]
  IC50: 0.017 µg/mL
[14]
  IC50: 3.79 µg/mL
[15]
  IC50: > 50 µg/mL
[16]
  IC50: > 50 µg/mL
[17]
  IC50: > 50 µg/mL
[18]
  IC50: > 50 µg/mL
[19]
  IC50: > 50 µg/mL
[20]
  IC50: 0.012 µg/mL
[21]
  IC50: 2.51 µg/mL
[22]
  IC50: > 50 µg/mL
[23]
  IC50: 0.257 µg/mL
[24]
  IC50: 2.47 µg/mL
[25]
  IC50: 0.007 µg/mL
[26]
  IC50: > 50 µg/mL
[27]
  IC50: > 50 µg/mL
[28]
  IC50: > 50 µg/mL
[29]
  IC50: > 50 µg/mL
[30]
  IC50: > 50 µg/mL
[31]
  IC50: > 50 µg/mL
[32]
  IC50: > 50 µg/mL
[33]
  IC50: > 50 µg/mL
[40]
  IC50: 14.5 µg/mL
[34]
  IC50: > 50 µg/mL
[41]
  IC50: 43.7 µg/mL
[42]
  IC50: 33.9 µg/mL
[43]
  IC50: 0.028 µg/mL
[44]
  IC50: > 50 µg/mL
[35]
  IC50: 0.128 µg/mL
[36]
  IC50: > 50 µg/mL
[37]
  IC50: > 50 µg/mL
[45]
  IC50: 0.521 µg/mL
HIV-1 VLGCA1 Env (HIV-1)
  IC50: > 50 µg/mL

From patent publication US20160264649A1
